B1: LacWT: M45 epitope-tagged wild type E. coli Lac repressor protein in whole cell extract of transfected 293 cells (protein)
chain: MKPVTLYDVAEYAGVSYQTVSRVVNQASHVSAKTREKVEAAMAELNYIPNRVAQQLAGKQSLLIGVATSSLALHAPSQIVAAIKSRADQLGASVVVSMVERSGVEACKAAVHNLLAQRVSGLIINYPLDDQDAIAVEAACTNVPALFLDVSDQTPINSIIFSHEDGTRLGVEHLVALGHQQIALLAGPLSSVSARLRLAGWHKYLTRNQIQPIAEREGDWSAMSGFQQTMQMLNEGIVPTAMLVANDQMALGAMRAITESGLRVGADISVVGYDDTEDSSCYIPPLTTIKQDFRLLGQTSVDRLLQLSQGQAVKGNQLLPVSLVKRKTTLAPNTQTASPRALADSLMQLARQVSRLESGQ
modifications: left off: small tags and cut ends

Columns and labels:
N52.E6 cells = experiment: Generation of virus stocks with IPTG in the media; format: cell-based, human; settings: 2 mM IPTG in the media
Source text: Towards the development of an all-inclusive helper virus whose packaging is specifically and selectively repressed while providing early and late gene products for complementation in trans of a gutted virus, the following recombinant Ad was constructed (FIG. 14). Ad-AV-VII(lac)^2-LacWT contains the AV-VII(lac)^2 minimal domain in place of the WT packaging domain as well as a CMV-M45-LacWT expression cassette. Ad-AV-VII^2-LacWT serves as a control, and contains the AV-VII^2 minimal domain without Lac binding sites, as well as the CMV-M45-LacWT expression cassette. These viruses were plaque purified and grown in N52.E6 cells. N52.E6 cells are a human amniocyte cell line transformed with Ad E1A and E1B sequences (Schiedner, Hertel et al. 2000). These cells contain only Ad nts 505-3522 and share no homologous sequence with the viral DNA constructs, thus eliminating the possibility of the generation of replication competent adenovirus (RCA) by recombination with Ad sequences present in other E1-containing cell lines. To generate stocks of these viruses, they were grown in N52.E6 cells with IPTG in the media at a concentration of 2 mM. IPTG is required in the media, as these viruses express Lac repressor protein that is able to bind to lac binding sites within the packaging domain and suppress packaging.

[1] = tested on: AV-VII(lac)^2 dimer probe; experiment: Gel mobility shift assay, AV-VII(lac)^2 dimer probe; settings: whole cell extract of transfected 293 cells
[2] = tested on: lac binding site monomer probe; experiment: Gel mobility shift assay, lac binding site monomer probe; settings: whole cell extract of transfected 293 cells

Molecule	growth of Lac repressor expressing viruses (N52.E6 cells)	AV-VII(lac) dimer binding activity [1]	Lac site monomer binding activity [2]
CC(C)S[C@@H]1O[C@H](CO)[C@H](O)[C@H](O)[C@H]1O [IPTG, isopropyl-β-D-thiogalactopyranoside]	allowed for growth of these viruses	–	–
B1	–	detected	detected

From patent publication US7585498B2, “Regulation of adenovirus DNA packaging by IPTG” (The Research Foundation of State University of New York, priority 2001, dated 2009)
